Laboratory results taken from the DeepSol protein solubility set.

Experiment: soluble on expression in E. coli; label from the status in PepcDB or PDB records
With “MYVAVKGGEKAIDNAHRLLARKRRGDTALPELSVEQIRQQMPLAVSRVMTEGSLYDEQLAALAIKQAAGDLMEAIFLLRAYRTTLPRFAASLPLDTAGMRLQRRISATYKDLPGGQLLGPTFDYTHRLLDFSLLAEGDYPGPEVERGASLEPCPRVLGLLDREGLMTPEYELPGAVPDITREPLDFPTGRAQRLQALARGDEGFLLALGYSTQRGYGRNHPFAGEIRIGACEVWLEPEELGFAVPVGEIEVTECEMVNQFVGSREELPQFTRGYGLAFGYAERKAMGMALVDRALRAEEYGEEVVSPAQQEEFVLMHCDNVEAGGFVSHLKLPHYVDFQSELELIRKLRRPGVAESAQPTVQEKRA” the “soluble on expression in E. coli” value was “not soluble”. For “MTEQPAVAAPYDVLFEPVQIGPFTTKNRFYQVPHCNGMGYRDPSAQASMRKIKAEGGWSAVCTEQVEIHATSDIAPFIELRIWDDQDLPALKRIADAIHEGGGLAGIELAHNGMNAPNQLSRETPLGPGHLPVAPDTIAPIQARAMTKQDIDDLRRWHRNAVRRSIEAGYDIVYVYGAHGYSGVHHFLSKRYNQRTDEYGGSLENRMRLLRELLEDTLDECAGRAAVACRITVEEEIDGGITREDIEGVLRELGELPDLWDFAMGSWEGDSVTSRFAPEGRQEEFVAGLKKLTTKPVVGVGRFTSPDAMVRQIKAGILDLIGAARPSIADPFLPNKIRDGRLNLIRECIGCNICVSGDLTMSPIRCTQNPSMGEEWRRGWHPERIRAKESDARVLVVGAGPSGLEAARALGVRGYDVVLAEAGRDLGGRVTQESALPGLSAWGRVKEYREAVLAELPNVEIYRESPMTGDDIVEFGFEHVITATGATWRTDGVARFHTTALPIAEGMQVLGPDDLFAGRLPDGKKVVVYDDDHYYLGGVVAELLAQKGYEVSIVTPGAQVSSWTNNTFEVNRIQRRLIENGVARVTDHAVVAVGAGGVTVRDTYASIERELECDAVVMVTARLPREELYLDLVARRDAGEIASVRGIGDAWAPGTIAAAVWSGRRAAEEFDAVLPSNDEVPFRREVTQLA”, the “soluble on expression in E. coli” value was “soluble”. In the case of “AIALRADKPKCSIQNFFIPALGKDPNSRDNTTLNFMVRCDNPNKDKGIYYDDVHLNFSTINTTKINSSALVLVGNYTVPKFYQGHKKKAKKWGQVKPLNNQTVLRAVLPNGSAVFRLDLKTQVRFKIVFWKTKRYGVEVGADVEVNGDGVKAQKKGIKMKKS”, the “soluble on expression in E. coli” value is reported as “soluble”. For “MSLGKKELIGFQVGVRESTQSWHELLVEAKTRGLKIAPEIAVGDGALGFWKALDEVFPATRHQRCWVHKTANILNKVAVSVQASMKKDLREVYLASNRASAEVAIDVFAEKYGAKYDKAVECLTKDRDAMLAFYEFPAEHWDHLRTTNPIESVFATVRHRTVRTKGSLSSTTAKLMVFKLLCAASKTWRRLKGTNQLPKVSAGVRFENGIEEGHHHHHH”, the “soluble on expression in E. coli” value was “not soluble”. For “MAAVKDSCGKGEMATGNGRRLHLGIPEAVFVEDVDSFMKQPGNETADTVLKKLDEQYQKYKFMELNLAQKKRRLKGQIPEIKQTLEILKYMQKKKESTNSMETRFLLADNLYCKASVPPTDKVCLWLGANVMLEYDIDEAQALLEKNLSTATKNLDSLEEDLDFLRDQFTTTEVNMARVYNWDVKRRNKDDSTKNKA”, the “soluble on expression in E. coli” value was “not soluble”. In the case of “MGSDKIHHHHHHMYAQTPQDMTRALFEAQLVELQRARAIRKKYHTDVVLGLTSAIRVLLIDMPSLYDKIKLLDYLHIVVEEPRFRSSHEGVKFHAYTATLPPDRTPDRTLQRDRTSRQTAATPETPHTQTARSHKKVTRDTTPFAAYENSKYAPIFVEPHIFTVHPLLLWVQMAAYLRLEELVVLGDAMMRRSFYRVHVSPADFATLLNELPTTFPHRKKCDKAVKLLAENTDSCMETRLRFRMLRAGYGPFVINYRLPLNTADKKQAFLDIAIPNLKIAIEYSGKFHAQNWESDEARRTALSSAGWQILSVNAETLSNSGKFKDFLIQLSMTIARQQTILQRNQQM”, the “soluble on expression in E. coli” value is reported as “not soluble”. For “EPNTPFGHTPPKGLPQDEAALDIEDAVHGALEGAGFVHYETSAFAKPAMQCRHNLNYWQFGDYLGIGAGAHGKISYPDRIERTVRRRHPNDYLALMQSQPSEAVERKTVAAEDLPFEFMMNALRLTDGVPAAMLQERTGVPSAKIMAQIETARQKGLLETDPAVFRPTEKGRLFLNDLLQCFL”, the “soluble on expression in E. coli” value was “not soluble”. In the case of “MTAYAKWSSCFQNGIDSWNNLTTTAEFLNHAGNISSNCKIILDLNIVKLSDSKFYISPQVQKSLTHATVGISSNFEAESQLKKVLELSSHHFLICQLFQRLPIINIFGATPKLSERERELFQKIGNYYPVAIGTKSGLVNVTMKPQYNYSLNDSAVPSSKSEFQLDLIYFLKDVLKQDFYYSIWFNIFFDELPNMLHRNRNFDENRITLCQININIDNDQKTNMKQFFKSLISDKRYVIIFEVVNDYGVLFLINFDNTTCRKKLGIVRNV”, the “soluble on expression in E. coli” value is reported as “not soluble”. With “MQRIPCVLMRGGTSKGPFFHAWDLPANVVERDELLINLMGSGHELEIDGIGGGSPQTSKVAIISPSLHADADVDYLFVQVMVAQRRVDTAPNCGNMLCAVGPFAIEQGLVKGQEGKTLVRIRNLNTGTFVNSLVETPGGIVRYEGRTAIDGVPGTAAPVHLTFLDAVGSKTGKLFPTGKAQDVIDGVPVTCIDMAMPMMVVEASQLGVSGSETPAQLDANSALLERLEALRLKAGKAMGLGDVSGMVIPKPVLVSKPRYDGTLQVRYFMPHNCHRALAITGAVGLATACVSPGTVIADLLGEGAQQLAQVRLEHPSGGIDVALTRSGAEGQTIQASVVRTARRLFSGFVYAPTFRRLAGLEHHHHHH” the “soluble on expression in E. coli” value was “soluble”. With “MGSDKIHHHHHHLEELDQMRAVFGTRPWREPTDTPAVISVSNFKGGVGKSTVALHLAQHFAIHGYRVLFIDCDSQASSTMMFGYRPDVDLTEDDTLYGHFHNPELLGVRSIIRKTHFFGLDLIPANLKLYNLEYEIAGYLAQNQNFDIIDLIAEAIDTVVDDYDVVVMDPPPALGMVSMAVLQAANAMVIPVPPSVIDFASTVSFIDMARTTMKQLEQIAGRVKPAYNFIRLVGSRVDESKSMHREILSMMRQVFGGSMATSVLKTSAEIDNASSRMKTVFELDRPVTSHEVHNRCMKHLSDVCREIETDVLRTWASRAGEAV” the “soluble on expression in E. coli” value was “not soluble”. For “AIARNDLFNREKSRQLSLTPRTEKIEVKHVGKTDPGTVFVMNKNISTPYSCAMHLSEWYCSKSILALVDGQPWDMYKPLTKSCEIKFLTFKDPDPREVNKAYWRSCAMMLGCVIERAFKDDYVVSLLRAPEVPVIAGAFCYDVTLDKRLDEWMPTKENLRSFTKDAHALIYRDLPFETLDVDARVALEIFQHNKYKVDFIEEKASQNPERIVKLHRIGDFIDVSEGPLIPRTSVCFQYEVSAVHNLNPSQPNLIRRFQGLSLPTHLRAQFTIWDKLVGRSRKMVTEDEVRQTENTESTQ”, the “soluble on expression in E. coli” value was “not soluble”. In the case of “MSIKILKPGLFSTIQDIGRLGYQDLGFSEAGALDYYSLSIAQKLIGNHGPAIEYTLVGPNIEFLTDNTFAIVGGDSEPKLNGNKIDLLTVYHVRNGDQLDIGQITEGARGYIVFGHPLKINKVAQSYSTHVRSGMGGFKGRALKKYDVIATQVNHNYKTNLGKTIDFSSIPDNNYIHVIEGPQINEFDEETIAKFVNSDFKISDQSDRMGYRLKGNTVAPKNSADIISEPVALGSIQVPNDGNPIILLNDKQTIGGYTKIATVTQLDLRKLAQMKPGDIIQFKWITVEEASKKLKEFNTKFEQLLKRFDEQPLFNLNQLRHTSNKIAEIIKEDRLEHHHHHH”, the “soluble on expression in E. coli” value is reported as “not soluble”. In the case of “MVYFAYGSNLCLEQMKKRCPEAIPMISVHLDDYKLVYNKYADIIPCEGEKVYGAIYEISLNDLKNLDKYEEYSDLYEKIDLIVQDINGISYEAFAYVMNEKGDKTPDKRYLDIINKGYEDWGIIY”, the “soluble on expression in E. coli” value is reported as “not soluble”. For “MGSDKIHHHHHHMEKMTFGLIVGNREFFPDRLVEEGRERVIKVLEGMGYRVVTLSPSDTKLGAVETAKDAKKCAELFKEKAGEIDGIIVTLPNFGDEKGVAQAIRLSGLNVPVLVHAFPDDPEKLDLQNRRDSFCGKISVSNNLKQYGIEFSLTTLHTEDPESEVFKRDIEKFAAVCRIVKGMRNIKVGAIGARPSAFNTVRFSEKILERMSISVETVDLSEILHRVSNLKDDDERVRRKLEEIKKNYRLQIVPEEKILLMAKFGSVIDEWIEENDIKALAIQCWTSLEWNLGITPCTIMSLLNEKGKPAACEVDITGALSMYVLQLASGQPSAIVDWNNNYRDENETILFHCGNFPASIYEEKPEIKYADVIGTTVGKERAYGACAGKIKTSPFTFLRLTTDDNEGKVKAYVGEGQILDENPKTFGSRGVARIEKLQELMKYICENGFEHHVAINLSRVADAVKEALEKYLGIVVHKHNAEV”, the “soluble on expression in E. coli” value was “not soluble”. With “GPGSMMEPTRNAEYSKQEYWDRRYTEEEHYDWFPSVYPMCVAAAFETVEAVYRVQRSTGAFNGTLKVLHLGTGNSTLCADIRATYEAKYPTEDSRPYRLVQAATDYSAVVIDRMQAKYGLAHPLEDVHWVVADIRDLSRVREQFGPFFDVVLDKGTMDALQADKANQNMEDDIERMLCEVSRCVEGGAGTRVYRVFVQITWEIPYLRLYYTTRNATHTFAWGTNVTYRFLGESDMYRVYTYEVSPPSSE” the “soluble on expression in E. coli” value was “soluble”. In the case of “MRPTRKCEFCGKTFVPRSGMQKYCSEECQAETKRLRKKRQQDLINGIEPIMDLQHQEYLTFSKAAILMGCTRQYIYKLVANGKLKASRLSSRMAFVRKADIEKMFEGHPYKRVVPASKSKLSKKAKAEKPTQNQEPTKGKEENDVLDYYSGEEVMSIYKVKKSWLYTSAKRNQIPMCRIAGKNYYSKRHIDEFFGTAVDLNSITEWVTADDVEEAFSMSKSALRAYTYRHKIPTKREYGRTYYSKEHLEELRRTDLMSDDSYYTTEQVQQIYGLTSANICHIVRVHHISKVKVGVKNLLLKTDVERAMAERAAKGL”, the “soluble on expression in E. coli” value is reported as “not soluble”. With “MKFKRLRTSENKLYYKAMELYKISFPFHEQRKSSLQEEILKNKEYQFNLIYDKNQFVGIILCWETDDFIYVEHFCIFPEMRNNRYGQRALELLNKKGKTIILEIDLPIDEISIYRKAFYERVKYKTNNYEHIHP” the “soluble on expression in E. coli” value was “not soluble”. With “MSLHQILVVDDDAVSQQFLVMVLQRLGYANVVVASDGLDALIQLDAGDRRFDVIFCDLDMPRMDGIEFVRHLGERAFQGKLLISSGFDERVLESVAELARMYDLWLAGVLPKPINHQALQRLINQAPPASRHPTHAVAPPTEDELRAAIGKGEIRPFLQPQVLLADGRIRSAEVLARWQHPRLGLIGPQQFIQLAEHSSLITELTLQLLKQAAASMDRLPSETPMEMSLNLSVASLNEIALVSQFERILNDCGFPFSRLTVEVTETGLMANPTRALELLTRLRLKGARLAIDDFGTGFASMDRLSRIPFTELKIDKSFVIDAARNPTNLSIVRASAELGRQLGLVVVAEGVATESEWRLCQQLDVEIVQGSFISPPVDAESFRRWLLKHRGEGHHHHHH” the “soluble on expression in E. coli” value was “soluble”. With “MGSDKIHHHHHHDIRPVGSVIPQTAEEYRALLARAYLNVPNDRGLACLRSDEMLVNDNEYDRNSYGDIERWNDVSPFPGTSQFTWSNFYNVLFIANQVIESQKEITEGTPEVVNQLVGEAHLLRAYLHFVLVNLHGQPYTKSGALNSKSIPLKLDTDLEKTLGRNTVEEVYTSILSDIEHARELINKEKWETVFSYRFNVLSVDALQSRVSLYMGAWPKCLESAEAVLAKKSVLVDMNETPLALPNHFESVESITALEQVMGSSVNNAVWVPATFLALYQEGDKRLAAYFAAPDENGNRKSSKGGKREFSCTFRVGELYLNAAEAAANMDKLPHARMRLLELMRKRYTPEAYDKKENAVNVMDKNALISEILNERARELAFEGHRWFDLRRTTRPRMVKVLQGKTYILEQDDPRYTIPIPRDAIAANPGLAN” the “soluble on expression in E. coli” value was “not soluble”. In the case of “MAVKFFGQFLVEKGVVSRETLLQAIELQESVNLSFGATSLAMGILTEADIERIHNAQRIEDLRFGDMAVKLGLLTSEQMMQVLTRQKNTHLYIGEALVKVGSFQADELPKYLEEFKADQAQYATDTVVIPTGVSEPKIWEMVADLSYKMLTRVALLVFRPEPCFVADRVPAMDVYATMDFTGDISGRYFMGVTAATQKKIAKAILKEPNVDNEPKEILDDTVMEFVNVALGNIAAKAAQSGKSMEIAPPEIIEAPDGIQVPDGHKALCFPVCLSDGDRIELAVFIQQLEHHHHHH”, the “soluble on expression in E. coli” value is reported as “soluble”.
